Like-named read-outs stand apart in the source and are kept apart here.
T1: extracellular domain of the IL-4Rα (IL-4 binding protein) (UniProt P24394 26-232, limits assumed, biotinylated at Cys-206)
T1 construct: extracellular domain; Immobilised on the streptavidin-coated matrix of the biosensor through biotin at Cys-206; also called IL4BP; IL-4 specific receptor
T1 sequence (looked up): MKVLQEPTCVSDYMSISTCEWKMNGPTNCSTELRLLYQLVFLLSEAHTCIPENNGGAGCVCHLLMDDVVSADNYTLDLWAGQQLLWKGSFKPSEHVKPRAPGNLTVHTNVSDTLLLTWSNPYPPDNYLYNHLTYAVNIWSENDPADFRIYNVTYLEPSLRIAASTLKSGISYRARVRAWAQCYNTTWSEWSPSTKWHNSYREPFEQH


Key:
[1] = molecular target: T1, extracellular domain of the IL-4Rα …; assay: biosensor (BIA2000), IL4BP biotinylated at Cys-206 on a streptavidin matrix, 25 C
[2] = molecular target: T1, extracellular domain of the IL-4Rα …; assay: as above; remark: listed apart in the source
[3] = molecular target: T1, extracellular domain of the IL-4Rα …; assay: biosensor (BIA2000), IL4BP immobilised on a streptavidin matrix, room temperature

Row | Binder | Kd [1] [mM] | Kd [2] [mM] | binding result [3]
1 | Ac-RMKQLEDKVERLLSRNYRLENEVARLKKLVG-NH2 (not fully specified, Synthetic peptide derived from the GCN4 leucine zipper, designed to form a non-covalent parallel coiled-coil dimer) [Model 2] | 4.08 | 4.08 | –
2 | Ac-RMKQLEDKVEELLSKNYRLENRVARLEKLVG-NH2 (also: designed to form non-covalent parallel coiled-coil dimer, Synthetic peptide derived from the GCN4 leucine zipper, designed to form a non-covalent parallel coiled-coil dimer) [Model 1] | – | – | no binding

Source: patent publication US6685932 (EUROPAISCHES LABORATORIUM MOLEKULARBIOLOGIE, dated 2004)
